“And” between values parts separate entries of the source, which are not always exact repeats. Equal values may be shown once.
Conditions: Gallus gallus, Absorbance, Sodium phosphate 0.06 M, reversible: yes, whole UniProt chain shown; for unfolding enthalpy (van 't Hoff): Thermal; for denaturant m value / denaturant midpoint (higher = more stable) / unfolding free energy: 25 °C, Urea

B1: Ovomucoid wild type, P01005 (protein)
chain: MAMAGVFVLFSFVLCGFLPDAAFGAEVDCSRFPNATDKEGKDVLVCNKDLRPICGTDGVTYTNDCLLCAYSIEFGTNISKEHDGECKETVPMNCSSYANTTSEDGKVMVLCNRAFNPVCGTDGVTYDNECLLCAHKVEQGASVDKRHDGGCRKELAAVSVDCSEYPKPDCTAEDRPLCGSDNKTYGNKCNFCNAVVESNGTLTLSHFGKC
pH 5
  unfolding enthalpy (van 't Hoff): 34 kcal/mol and 30 kcal/mol
pH 5, transition: 3
  unfolding enthalpy (van 't Hoff): 30 kcal/mol and 44 kcal/mol
pH 7
  denaturant m value: 1.35 kcal/mol/M and 1.15 kcal/mol/M
  denaturant midpoint (higher = more stable): 2.7 M and 2.8 M
  unfolding free energy: 4.65 kcal/mol and 3.39 kcal/mol
  unfolding enthalpy (van 't Hoff): 58 kcal/mol and 37 kcal/mol
pH 7, transition: 3
  denaturant m value: 1.01 kcal/mol/M and 1.03 kcal/mol/M and 1.02 kcal/mol/M
  denaturant midpoint (higher = more stable): 7.3 M and 2.8 M and 6.9 M
  unfolding free energy: 7.66 kcal/mol and 3.39 kcal/mol and 7.42 kcal/mol
  unfolding enthalpy (van 't Hoff): 82 kcal/mol and 54 kcal/mol and 46 kcal/mol

Reference: FireProtDB (doi:10.1016/0167-4838(91)90474-e)
